{
  "source": "paper PMC7261152",
  "about": "(Nucleic Acids Research, 2020)",
  "target": "T1, human BCMA-Fc fusion protein (human, UniProt Q02223 1-54)",
  "T1 sequence (looked up)": "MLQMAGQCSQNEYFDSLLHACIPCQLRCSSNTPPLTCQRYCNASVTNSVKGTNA",
  "test": "ELISA",
  "data": [
    {"binder": "anti-BCMA DVD-IgG1 (2) (bispecific antibody) light: DIQMTQSPSSLSASVGDRVTITCSASQDISNYLNWYQQKPGKAPKLLIYYTSNLHSGVPSRFSGSGSGTDFTLTISSLQPEDFATYYCQQYRKLPWTFGQGTKLEIKASTKGPELQMTQSPSSLSASVGDRVTITCRSSQSLLHTYGSPYLNWYLQKPGQSPKLLIYKVSNRFSGVPSRFSGSGSGTDFTLTISSLQPEDFAVYFCSQGTHLPYTFGGGTKVEIKRTVAAPSVFIFPPSDEQLKSGTASVVCLLNNFYPREAKVQWKVDNALQSGNSQESVTEQDSKDSTYSLSSTLTLSKADYEKHKVYACEVTHQGLSSPVTKSFNRGEC heavy: not shown", "values": [
      {"measurement": "binding result", "result": "binds"}
    ]}
  ]
}
